From patent US20230374088A1 (GENERAL HOSPITAL, published 2023)

B1: Gli2-ZF (418-604aa; zinc finger domain of Gli2) (other, human, UniProt P10070 418-604, looked up)
chain: KEDLDRDDCKQEAEVVIYETNCHWEDCTKEYDTQEQLVHHINNEHIHGEKKEFVCRWQACTREQKPFKAQYMLVVHMRRHTGEKPHKCTFEGCSKAYSRLENLKTHLRSHTGEKPYVCEHEGCNKAFSNASDRAKHQNRTHSNEKPYICKIPGCTKRYTDPSSLRKHVKTVHGPDAHVTKKQRNDVH
notes: Expressed with an HRV-cleavable N-terminal 6xHis tag, cleaved 'if needed'; also called Gli-ZF
B2: GST-Kif7-CC (460-600aa) (other)
chain: PDSGIESASVEDQAAQGAGGRKEDEGAQQLLTLQNQVARLEEENRDFLAALEDAMEQYKLQSDRLREQQEEMVELRLRLELVRPGWGGPRLLNGLPPGSFVPRPHTAPLGGAHAHVLGMVPPACLPGDEVGSEQRGEQVTN
notes: held on the BLI sensor through the GST tag; also called Kif7 coiled-coil domain; coiled-coil dimerization domain fragment of Kif7; not shown: N-terminal GST tag (HRV protease cleavable, modified pGEX vector)

What was measured:
Kif27M-Kif7CC chimera = biological target: T1, Kif27M-Kif7CC chimera (human, UniProt Q86VH2 1-475); test: BLI; HIS-tagged, GFP-tagged kinesin on anti-penta-HIS sensor, Gli2-ZF as analyte, Hill fit
T1 construct: range 1-475; not shown: HIS tag (used for BLI); GFP tag
T1 sequence: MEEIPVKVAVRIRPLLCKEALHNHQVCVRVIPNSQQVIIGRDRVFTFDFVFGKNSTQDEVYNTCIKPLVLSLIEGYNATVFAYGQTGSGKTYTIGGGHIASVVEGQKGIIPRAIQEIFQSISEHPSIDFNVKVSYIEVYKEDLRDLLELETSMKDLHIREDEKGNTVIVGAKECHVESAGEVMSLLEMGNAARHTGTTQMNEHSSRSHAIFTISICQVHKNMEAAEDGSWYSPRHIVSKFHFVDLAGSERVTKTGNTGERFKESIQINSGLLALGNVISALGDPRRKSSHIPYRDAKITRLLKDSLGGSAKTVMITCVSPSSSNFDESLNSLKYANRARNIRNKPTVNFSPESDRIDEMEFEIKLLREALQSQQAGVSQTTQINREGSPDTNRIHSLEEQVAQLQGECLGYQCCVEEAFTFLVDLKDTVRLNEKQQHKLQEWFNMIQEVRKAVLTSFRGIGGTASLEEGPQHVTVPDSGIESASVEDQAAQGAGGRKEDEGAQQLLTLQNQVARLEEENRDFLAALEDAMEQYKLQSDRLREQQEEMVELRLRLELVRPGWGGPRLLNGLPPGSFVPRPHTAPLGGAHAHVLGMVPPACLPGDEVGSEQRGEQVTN
Description: (§1) Data represent mean and standard deviation from three independent repeats. The plots of binding response versus Gli2-ZF concentration were fit to a Hill equation to determine equilibrium dissociation constants (Kd).
(§2) BLI experiments were performed in an Octet Red 96 instrument (ForteBio). To quantify Kif7-Gli2 binding, Experiments were performed in an assay buffer containing 40 mM TRIS pH7.3, 40 mM KCl, 40 μM ATP 1 mM MgCl₂, 0.12% tween and 0.5 mM TCEP. In the simplest assay, dimeric GST-Kif7-CC at a concentration of 120 nM is immobilized on an anti-GST biosensor chip. Unbound Kif7 is washed away with buffer, and the chips are then dipped into buffer with a range of Gli2-ZF concentrations from 0-1 μM to allow for association of the two proteins. After 300 seconds, they are then moved back into a well with just buffer to allow dissociation for 400 seconds. The equilibrium response of each sensor from three independent repeats at each Gli2 concentration were normalized and plotted against Gli2 concentration and fitted with a Hill function to obtain a Kₜ. […] The assays were also performed with HIS-tagged Kif7-DM and the Kif7-Kif27 chimeric proteins, requiring the use of an anti-penta-HIS biosensor chip, and referencing sensors to account for non-specific binding of Gli2 to the HIS sensor. A flipped assay, using HIS-tagged Gli2 on the sensor and a range of Kif7 concentrations in buffer, was also conducted.

Kif7M-Kif27CC chimera = biological target: T2, Kif7M-Kif27CC chimera (human, UniProt Q86VH2 475-570); test: as above
T2 construct: range 475-570; not shown: HIS tag (used for BLI); GFP tag
T2 sequence: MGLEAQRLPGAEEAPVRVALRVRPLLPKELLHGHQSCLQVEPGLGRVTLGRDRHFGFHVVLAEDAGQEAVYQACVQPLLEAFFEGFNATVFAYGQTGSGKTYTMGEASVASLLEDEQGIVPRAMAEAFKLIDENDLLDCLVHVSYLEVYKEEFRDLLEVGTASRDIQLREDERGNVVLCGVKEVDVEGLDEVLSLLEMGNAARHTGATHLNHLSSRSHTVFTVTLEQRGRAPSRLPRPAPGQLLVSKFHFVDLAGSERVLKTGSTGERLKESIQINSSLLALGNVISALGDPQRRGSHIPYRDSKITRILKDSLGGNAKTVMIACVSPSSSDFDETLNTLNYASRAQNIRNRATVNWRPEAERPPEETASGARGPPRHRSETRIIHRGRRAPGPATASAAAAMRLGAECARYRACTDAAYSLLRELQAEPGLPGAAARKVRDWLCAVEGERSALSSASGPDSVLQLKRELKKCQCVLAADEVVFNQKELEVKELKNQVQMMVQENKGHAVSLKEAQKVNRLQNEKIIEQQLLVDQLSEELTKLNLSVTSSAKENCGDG
Description: as §1, §2

Kif7-DM-GFP (1-543aa) [1] = biological target: T3, Kif7-DM-GFP (1-543aa) (human, UniProt Q2M1P5 1-543); test: as above
T3 construct: Dimer; Used in TIRF, size exclusion and BLI (HIS-tagged, anti-penta-HIS sensor); also called GFP-tagged recombinant dimeric Kif7 protein; GFP-tagged Kif7-DM; not shown: TEV-cleavable N-terminal 6xHis tag and SUMOstar tag; His tag on in the BLI assay, state in other a; GFP tag, C-terminal by the name
T3 sequence: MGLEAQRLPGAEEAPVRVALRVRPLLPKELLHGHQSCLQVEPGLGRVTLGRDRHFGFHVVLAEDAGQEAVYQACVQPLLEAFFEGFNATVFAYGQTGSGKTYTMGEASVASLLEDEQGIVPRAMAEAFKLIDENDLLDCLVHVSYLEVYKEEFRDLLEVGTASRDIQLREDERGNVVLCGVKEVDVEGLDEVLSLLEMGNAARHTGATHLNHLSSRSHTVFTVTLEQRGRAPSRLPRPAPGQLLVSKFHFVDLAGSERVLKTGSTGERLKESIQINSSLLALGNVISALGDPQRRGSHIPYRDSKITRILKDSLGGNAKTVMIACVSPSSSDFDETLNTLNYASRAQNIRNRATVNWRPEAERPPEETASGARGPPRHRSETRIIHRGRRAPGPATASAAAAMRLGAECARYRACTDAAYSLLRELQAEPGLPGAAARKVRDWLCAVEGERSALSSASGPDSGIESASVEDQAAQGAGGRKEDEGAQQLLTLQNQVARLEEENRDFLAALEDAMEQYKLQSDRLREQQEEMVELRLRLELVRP
Description: as §1, §2

GST-Kif7-CC (460-600aa) [2] = biological target: B2; test: BLI, GST-Kif7-CC on the sensor, Gli2-ZF titrated in the presence of 125 nM Gli2 target dsDNA (competitor); not an affinity of the free pair [panel A]
Description: as §2

Kif7-DM-GFP (1-543aa) [3] = biological target: T3, Kif7-DM-GFP (1-543aa); test: cell-based or functional assay
Gli2-ZF-1-4 [4] = biological target: T4, Gli2-ZF-1-4 (human, UniProt P10070 418-562, limits assumed); test: BLI with Gli2-ZF truncation, Hill fit (legend of FIG. 10C); legend of FIG. 10C; Hill fit, three repeats
T4 construct: domain: zinc-fingers 1-4
Description: as §1
as §2, with “A flipped assay, using HIS-tagged Gli2 on the sensor and a range of Kif7 concentrations in buffer, was also conducted.” left out

[5] = biological target: B1; test: BLI; GST-Kif7-CC on anti-GST sensor, Gli2-ZF as analyte, Hill fit of equilibrium response
Text: Data represent mean and standard deviation from three independent repeats. The plots of binding response versus Gli2-ZF concentration were fit to a Hill equation to determine equilibrium dissociation constants (Kd). […] See also FIGS. 8A & 8B.
Single molecule fluorescence intensity and photobleaching analysis of the GFP-tagged proteins indicate that the GST-Kif7-CC is an obligate dimer and Gli2-ZF is a monomer (FIGS. 8C & 8D). […] We also verified that Kif7-CC-GFP and Gli2-ZF-GFP bind with similar affinity as the untagged proteins (FIG. 8E). Due to higher stability and yield of the Kif7-CC compared to the Kif7-SCC protein, we used the Kif7-CC for further biochemical analysis.
(§3) BLI experiments were performed in an Octet Red 96 instrument (ForteBio). To quantify Kif7-Gli2 binding, Experiments were performed in an assay buffer containing 40 mM TRIS pH7.3, 40 mM KCl, 40 μM ATP 1 mM MgCl₂, 0.12% tween and 0.5 mM TCEP. In the simplest assay, dimeric GST-Kif7-CC at a concentration of 120 nM is immobilized on an anti-GST biosensor chip. Unbound Kif7 is washed away with buffer, and the chips are then dipped into buffer with a range of Gli2-ZF concentrations from 0-1 μM to allow for association of the two proteins. After 300 seconds, they are then moved back into a well with just buffer to allow dissociation for 400 seconds.

Gli2-ZF-1-4 [6] = biological target: T4, Gli2-ZF-1-4; test: BLI with Gli2-ZF truncation, Hill fit
Text: as §1
(§4) Third, we performed a series of site-directed mutagenesis experiments to further confirm the structural model and map the residues of Gli2-ZF and Kif7-CC required for complex formation. We created five Gli2-ZF truncations containing different groups of zinc-fingers (FIG. 3C; FIGS. 10A & 10B). […] This is similar to the Gli-DNA interaction where ZF2 and ZF3 are critical for making contacts with the phosphate backbone of DNA (Pavletich and Pabo, Science, 261, 1701-1707, 1993).
as §3, with “seconds. […]” for “seconds.”

Gli2-ZF-GFP = biological target: T5, Gli2-ZF-GFP (human, UniProt P10070 418-604); test: BLI, Hill fit
T5 construct: HRV-cleavable N-terminal 6xHis tag in the vector; not shown: C-terminal GFP tag
T5 sequence (looked up): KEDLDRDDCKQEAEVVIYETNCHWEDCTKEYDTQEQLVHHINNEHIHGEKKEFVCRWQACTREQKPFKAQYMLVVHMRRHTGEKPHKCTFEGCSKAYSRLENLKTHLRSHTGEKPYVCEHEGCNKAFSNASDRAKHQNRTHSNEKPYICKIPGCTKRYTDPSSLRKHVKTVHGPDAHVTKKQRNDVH
Description: as §1, with “(Kd). […] GFP-tagged versions of proteins show a consistent increase in Kd that is within error range.” for “(Kd).”
as §2, with “A flipped assay, using HIS-tagged Gli2 on the sensor and a range of Kif7 concentrations in buffer, was also conducted.” left out

[7] = biological target: B1; test: BLI, Hill fit
Description: as §1, with “(Kd). […] GFP-tagged versions of proteins show a consistent increase in Kd that is within error range.” for “(Kd).”
as §2, with “A flipped assay, using HIS-tagged Gli2 on the sensor and a range of Kif7 concentrations in buffer, was also conducted.” left out

GST-Kif7-CC (460-600aa) [8] = biological target: B2; test: BLI with Gli2-ZF truncation, Hill fit
Text: as §1, §4
as §3, with “seconds. […]” for “seconds.”

## B1
Kif27M-Kif7CC chimera
  Kd: 213 nM
Kif7M-Kif27CC chimera
  Kd: 397 nM
Kif7-DM-GFP (1-543aa) [1]
  Kd: 217 nM
GST-Kif7-CC (460-600aa) [2]
  EC50 (read off the curve): ~200 nM
Kif7-DM-GFP (1-543aa) [3]
  Kif7 fluorescence intensity on microtubules (TIRF): > 5 fold

## B2
Gli2-ZF-1-4 [4]
  Kd: 103 nM
[5]
  Kd: 48 nM
Gli2-ZF-1-4 [6]
  Kd: 101 nM

B3: GST-Kif7-CC-GFP (other)
chain: PDSGIESASVEDQAAQGAGGRKEDEGAQQLLTLQNQVARLEEENRDFLAALEDAMEQYKLQSDRLREQQEEMVELRLRLELVRPGWGGPRLLNGLPPGSFVPRPHTAPLGGAHAHVLGMVPPACLPGDEVGSEQRGEQVTN
notes: also called GST-tagged Kif7-CC-GFP; not shown: N-terminal GST tag; GFP tag, C-terminal by the name
Gli2-ZF-GFP
  Kd: 57 nM
[7]
  Kd: 65 nM

B4: Gli2 ZF1-3 (other, human, UniProt P10070 418-530, looked up)
chain: KEDLDRDDCKQEAEVVIYETNCHWEDCTKEYDTQEQLVHHINNEHIHGEKKEFVCRWQACTREQKPFKAQYMLVVHMRRHTGEKPHKCTFEGCSKAYSRLENLKTHLRSHTGE
notes: domain: zinc-fingers 1-3
GST-Kif7-CC (460-600aa) [8]
  Kd: 160 nM
